# Measured values as given in patent publication US20210324069A1 (PROGASTRINE ET CANCERS S R L, published 2021).
# Target: T1, human progastrin (human)
# T1 construct: 80-residue progastrin; also called hPG; PG
# T1 chain: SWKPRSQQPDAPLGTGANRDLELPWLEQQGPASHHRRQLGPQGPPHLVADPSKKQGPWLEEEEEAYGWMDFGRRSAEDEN
# Assay: epitope mapping (no details given)
row,Binder,binding result
1,"mAb3 (antibody, V domains shown, Murine monoclonal antibody from a hybridoma; also called hybridoma 6B5B11C10) VH: EVQLQQSGTVLARPGASVKMSCKASGYIFTSYWVHWVKQRPGQGLEWIGGFYPGNSDSRYNQKFKGKATLTAVTSASTAYMDLSSLTNEDSAVYFCTRRDSPQYWGQGTTLTVSS VL: DVLMTQTPLSLPVSLGDQASISCRSSQSIVHSNGNTYLEWYLQKPGQSPKLLIYKVSNRFSGVPDRFSGSGSGTDFTLKISRLEAEDLGVYYCFQGSHVPFTFGGGTKLEIK",binds
2,"mAb19 (antibody, V domains shown, Murine monoclonal antibody from a hybridoma; also called hybridoma 1B3B4F11) VH: DVQLQESGPGLVKPSQSLSLTCTVTGYSITSDYAWNWIRQFPGNKLEWMGYISFSGYTSYNPSLKSRISVTRDTSRNQFFLQLTSVTTEDTATYYCAREVNYGDSYHFDYWGQGTIVTVSS VL: QLALTQSSSASFSLGASAKLTCTLSSQHRTYTIEWYQQQSLKPPKYVMEVKKDGSHSTGHGIPDRFSGSSSGADRYLSISNIQPEDEAIYICGVGDAIKGQSVFVFGGGTKVTVL",binds
3,"mAb16 (antibody, V domains shown, Murine monoclonal antibody from a hybridoma; also called hybridoma 1E9D9B6) VH: QVQLQQSGAELVKPGASVKLSCKASGYTFTSYYMYWVKQRPGQGLEWIGEINPSNGGTNFNEKFKSKATLTVDKSSSTAYMQLSSLTSEDSAVYYCTRGGYYPFDYWGQGTTLTVSS VL: not shown",binds
4,"mAb13 (antibody, V domains shown, Murine monoclonal antibody from a hybridoma; also called hybridoma 2C6C3C7) VH: EVQLVESGGGLVQPGGSLKLSCAASGFIFSSYGMSWVRQSPDRRLELVASINTFGDRTYYPDSVKGRFTISRDNAKNTLYLQMTSLKSEDTAIYYCARGTGTYWGQGTTLTVSS VL: not shown",binds
5,"mAb4 (antibody, V domains shown, Murine monoclonal antibody from a hybridoma; also called hybridoma 20D2C3G2) VH: QVQLQQSGAELMKPGASVKISCKATGYTFSSSWIEWLKQRPGHGLEWIGEFLPGSGSTDYNEKFKGKATFTADTSSDTAYMLLSSLTSEDSAVYYCATDGNYDWFAYWGQGTLVTVSA VL: DLVMTQTPLSLPVSLGDQASISCRSSQSLVHSSGVTYLHWYLQKPGQSPKLLIYKVSNRFSGVPDRFSGSGSGTDFTLKISRVEAEDLGVYFCSQSTHVPPTFGSGTKLEIK",binds
